Experiment: yeast display, Sf9 membrane polyspecificity reagent, FACS + sequencing; frameworks hold sequencing errors
How it was run: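 Sorting gates, low and high (top ~1%), were placed on anti-HA fluorescence to track expression and on streptavidin fluorescence to track reagent binding. A clone's polyreactivity label is taken from the gate it came out of. The reagent was 10% biotinylated, detergent-solubilized Sf9 membrane, applied for 1 hour at 4 °C to galactose-induced yeast display cells.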

| Sequence | polyreactivity (PSR sort gate) |
| --- | --- |
| QVQLVESGGGLVQAGGSLRVSCASSGSIFLDNAMEWYRQAPGKERELVAAISYGDGSTYYADSVKGRITISRDNAKNTVYLQMNRLKPEDTAVYYCAAERYTIPPIYDYWGQGTQVTVSS | low polyreactivity |
| QVQLVESGGGLVQAGGSLRLSCAASGFTFGGYAMGWYRQAPGKERELVAAINWSGGSTDYADSVKGRFTISRDIAKNTVYLQMNSLKPEDTAVYYCAAEGQDGRFYWGQGTQVTVSS | low polyreactivity |
| QVQLVESGGGLVQAGGSLRLSCAASGSILYFYAMGWYRQAPGKEREFVAAISRSGGSTRYADSVKGRFTISRDNAKNTVYLQMNSLKPEDTAVYYCAATSRSYNDYDYWGQGTQVTVSS | high polyreactivity |
| QVQLVESGGGLVQAGGSLRLSCAASGFIFSSNAMGWYRQAPGKERELVARITWSDGSTYYADSVKGRFTISRDNAKNTVYLQMNSLKPEDTAAYYCAKGRDATHYEYYLYSMDYWGQGTQVTVSS | low polyreactivity |
| QVQLVESGGGLVQAGGSLRLSCAASGRIFILYAMGWYRQAPGKERELVAAITGGSTYYADSVKGRFTISRDNAKNTVYLQMNSLKPEDSAVYYCAADVRHYIWEYYYWGQGTQVTVSS | low polyreactivity |
| QVQLVESGGGLVQAGGSLRLSCSASGRILRQYAMGWSRQAPGKERELVAAITSSGGSTYYADSVKGRFTISRDNAKNTVYLQMNSLKPEDTAVYYCNARLRGAKYDYLGQGTQVTVSS | high polyreactivity |
| QVQLVESGGGLVQAGGSLRLSCAASGNIFPYYTLGWYRKAPGKEREWVAAITIGGSTYYADSEKGRFTISRDNAKNTVYLQMNSLKPEDTAVYYCAARSRYYDTRFEYWGQGTQVTVSS | low polyreactivity |
| QVQLVESGGGLVQAGGSLRLSCAASGRTFYWNAMGWYRQAPGKERELVAAIRWRGGNTYYADSVKGRFTISRDNAKNTVYLQMNSLKPEDTAVYYCAAAGGKSEMGYWGQGTQVTVSS | high polyreactivity |
| QVQLVESGGGLVQAGCSLRLSCAASGLIFLPYAMGWYIQAPGKERELVAAINFSTGSTHYADSVKGRFTISRDNAKNTVFLQMNSLKPEDTAVYYCAVYTSQIYGYWGQGTQVNVSS | high polyreactivity |
| QVHLVESGGGLVQAGGSLRLSCAASGLIFSFYPMGWYRQAPGKERELVAGINWRGGSTYYADSVKGRFTISRDNAKNTVYLQMNSLKPEETAVYYCAAPSYYYGYWGQGTQVTVLS | high polyreactivity |
| QVPLEESRGGLVQAGGSLRLSCAASGTIFVAYDMGWYRQAPGKERELVAAIDSVGRTNYADSVKGRFTISRDNAKNTVYLQMNSLKPEDTAVYYCNADQYYSFYDPDDYWGQGTQVTVSS | low polyreactivity |
| QVQLVESGGGLVQAGGSLRLSCAASGGIFDTYVMGWYRQAPGKETELVAAISSSGSTTYADSVKGRFTISRDNAKNTVYLQMNSLKPEDTAVYYCNADYSTIWRYDYWGQGTQVTVSS | low polyreactivity |
| QVQLVESGGGLVQAGGSLRLSCAASGFIFGTYTMGWYRQAPGKERELVAAISKSSGSTYYADSVKGRFTISRDNAKNTVYLQMNSLKPEDTAVYYCAAPTRSYGTPPYDYWGQGTQVTVSS | low polyreactivity |
| QVQLVESGGGLVQAGGSLRLSCAASGSIFLFYTMGWYRQATGKERELVAAISYSGGNTYYADSVKGRFTISRDNATNTVYLQMNSLKPEDTAVYYCNVRTQWARYDYWRQGTQVTVSS | high polyreactivity |
| LVQLVESGGRLVQAGGSLRLTCAATGSIFDGNAKGWYRQAPGKDRELVADISRGGSTYYADSVKGRFTISSDNAKNTVYFQLNSLKPEDTAVYDCTVEFFFWPYEYGYWGQGTQVTVSS | low polyreactivity |
| QVQLVESGGGLVQAGGSLRLICAASGSIFRSYSMGWYRQAPGKERELVAGINRSGASTYYADSVKGRFTISRDNAKNTVYLQMNSMKPEDTAVSYCNARAQRGGYNYWGQGTQVTVSS | high polyreactivity |
| QVQLVESGGRLVQAGGSLRLSSAASGGTFYRNARGWYRQAPGKERELVASISRTGGSTYYADSVKGRFTISRDNAKNTVYLQMNSLKQVDTAVYYCAKKQPRYSYFDNDYWGQGTQVTVSS | high polyreactivity |
| QVQLVESGGGLVQAGGSLRLSCAASGRIFSFNAMGWYRQAPGKERELVATISWNGDSTYADSVKGRFTISRDNAKNTVYLQMNSLKPEDTAVYYCAVDVPPWDYDYWGQGTQVTVSS | low polyreactivity |
| QVQLVESGGGLVEAGGSLRISCAASGSIFGYYAMGWYRQAPGKERELVAAISYSGGSTNYADSVKGRFTISRDTAKNSVSLQMNSLKPEDTAGYAFATSRSRRYVEFYRYDYWGQGPQVTVSS | high polyreactivity |
| QVQLVESGGGLVQAGGSLRLSCAASGSIITWNAMGWYRQAPGKERELVAAIDWDGGSTYYADSVKGRFTISRDNAKNTVYLQMNSLKPEDSAVYYCAATYGWYTGRYPSGHYYYWGQGTQVTVSS | low polyreactivity |
| QVQLVESGGGLVQAGGSLRLSCAASGRILTYYAMGWYRQAPGKERELVASISSNGGTYYADSVKGRFTISRDNAKNTVYLQMNSLKPEDTAVYYCNAKRVARYQYGASYNYWGQGTQVTVSS | high polyreactivity |
| QVQLVESRGGLVQAGGSLRLSCAASGRIIGYNAMGCYRQAPGKERELVAAINSDGSKNYADSVKGRFTISRDNAKNTVYLQMNSLKPEDTAVYYSIKELYPVGDYEYWGQGSQVTVSS | low polyreactivity |

| Sequence | polyreactivity (PSR sort gate) |
| --- | --- |
| QVQLVESGGGLVQAGGSLRLSCAASGTIYVTNGMGWYRQAPGKERELVAVISWGGGNTYYADSVKRRFTISRDNAKNTVYLQMNILKPEDTAVYYCAADPISEFYWGVKDRYDYWGQGTQVTVSS | low polyreactivity |
| QVQLVESGGGLVQAGGSLRLSCAASGSTFNNYAMGWYSQAPGKERELVAAITRGGGSTHYADSVKGRFTISRDNAKKTVYFQMNCRKPEDTAVYYCAVAGFDRGQYVRYYYWGQGTQVTVSS | low polyreactivity |
| QVQLVESCGGLVQAGGSIRLRCAATGSIIYVNPMGWYRQAPWKEREMVAAITGGASTNYADSVKGRFTISRDNAKNTVYLQMNLLKPEDTAVYYCAVDPVGHATRVWTYQYDYWGQGNQVTVSS | low polyreactivity |
| QVQLVESGGGLVQAAGSLRLSCAASGLTFWKYTMGWNRQAPGKEWELVAAISISGTNTYYADSVKGRFTISRDNAKNTVYLQLNSLKPEDTAVYYCAAVRGYPPTNYYYWGPGTQVTVSS | high polyreactivity |
| QVQLVESGGGLVQAGGSLRLSCDASGYIFSANAMGWYRQSPGKERELVAAITSSGGSTYYADSVKGRFTISRDNAKNTVYLQMNSLKPEDTAVYYCAAYSIYYRSGYPSRYRYYYWGQGTQVTVSS | high polyreactivity |
| QVQLVESGGGLVQAGGSLRLSCAASGRILRPNAMGWYRQAPGKEREMVAAISVSGGRTYYADSVKGRFTISRDNAKNTVYLQMNSLKPEDTAVYYCAAKYKRGYDYWGQGTQVTVSS | high polyreactivity |
| QVQLVESGGGLVQAGGSLRLSCAASGFIFRYYAMGWYRPAPGKERELVATISSGGGTHYADSVKGRFTISRDNAKNTVYLQMNSLKPEDAAVYYCNARGYRRLRTRVDYWGQGTQVTVSS | high polyreactivity |
| QVQLVESGGGLVQAGGSLRLSCAASGGTFSFYTMVWYRQAPGKERELVAAIDSTGRTNYADSVKGRFTISRDNAKNTVYLQMNSLKPEDTAVYYCAAGPPRADYDYWGQGTQVTVSS | low polyreactivity |
| QDQIVESGGGVVQAGGSLRLSCASSGRIFYDYLGWNRQAPGKETELDADISSGGSTHYADSVKGRFTISRDNAKNTVYLQMNSLKGEDTAVYYCIAVLVLSYDKDWRLIEMDYWGQGTHVTVSS | low polyreactivity |
| QVQLVESGGGLVQAGGSLRLSCAASGSILYGNAMGWYRQAPGKERELVAAITTSGGRTYYADSVKGRFTISRDNAKNTVYLQLTSLKPEDTAVYYCAAASPTPVNWSGRDYYYWGQGTQVTVSS | high polyreactivity |
| QVQLVESVGGLVQAGGSLRLSCAASGSIFWSNAMGWYRQAPGKERELVARISTSGGRTYYADSVKGRFTISRDNAKNTVYLQMNSLKPEDTAVYYCNAGKLYYRWLYDYWGQGTQVTVSS | high polyreactivity |
| QVQLVESGGGLVQAGGSLRLSCAASGSIITWYTMGWYRQATGKERELVASISSGGTTKYADSVKGRFTISRDNAKNTVYLQMNCLKPEDTAVYYCAAEYIAYYGTGTYYGLDYWGQGTQVTVSS | low polyreactivity |
| QVQLVESGGGLVQAGGSLRLSCAASGFTFQYYAMGWYRQAPGKERELVATITTSGGNTYYADSVKGRFTISRDNAKNTVYLQMNSLKPEDTAVYYCAARNARYVHTMEYWGQGTQVTVSS | high polyreactivity |
| QVQLVESGGGIVQAGGSLRLSCAASGLIFSVNAMGWYRQAPGKERELVASISVSGGSTYYADSVKGRFTISRDNAKNTVYLQMNSLKPEDTAVYYCNTVPLAGEYSTDLRYDYWGQGTQVTVSS | low polyreactivity |
| QVQLVESGGGLVQAGGSLRLSCAASGFTFRWYTMGWYRQAPGKERELVASINWSTGTPYYADSVKGRFTISRDNAKNTVYLQMNSLNPEDTAVYYCNARFRGRVYDRFGYRGQGTQVTVSS | high polyreactivity |
| QVQRVESGGGLVQAGGSLRLSCAASGSIVQQYAMGWYRQAPGKERELVAAISYSGGTTYYADSVKGRFTISRDNAKTTVYLQMNSLKPEDTAVYYCAAYYPSGSYDYYWGQGTQVTVSS | low polyreactivity |
| QVQLVESGGGLVQAGGSLRLSCAASGRIFKRYAMGWYRQAPGKERELVAAIRTSDGITYYADSVKGRFTISRDNAKNTVYLQMNSLKPEDTAVYYCNADLSKAERWGQGTQVTVSS | low polyreactivity |
| QVQLVESCGGLVHAGGSLRLSCAATGFTIAENVKGWYRQSPGKERELVAAIDYSDGITYYADSVKGRFTISRDNAKNTVYLQMNSLKPEDTAVYYCATQYLIQTKDYSWGQGTQVTVSS | high polyreactivity |
| QVQLVESGGGLVQAGGSLRLSCAASGGTFLGNAMGWYRPAPGKERELVADITSGGSTNYADSVKGRFTISRDNAKNTVYLQMNSLKPEDTAVYYCNAEYSTSTVWEYDYWGQGTQVTVSS | low polyreactivity |
| QVQLVESGGGLVQAGGSLRLSCAASGSILLAYVMGWYRPAPGKERELVAAISSGDDTKYADSVKGRFTISRDNAMNTVYLQMNSLKPEDTAVYYCNAYTLDYPYHRFGYWGQGTQVTVSS | low polyreactivity |
| QVQLVESGGGLVQAGGSLRLSCAASGRTFSYYAMGWYRQAPGKERELVAAISWSGGSTYYADSVKGRFTISRDNAKNTVYLQMNSLKPEDTAVYYCNAPGYVWKGYDYWGQGTQVTVSS | high polyreactivity |

Source: the nanobody polyreactivity screen of Harvey et al. (2022)
